From patent EP4755912A1 (Shandong Boan Biotechnology Co., Ltd., dated 2026)
Like-named read-outs stand apart in the source and are kept apart here.

T1: Human CD228 protein (human, UniProt P08582 20-708, limits assumed)
T1 construct: A His tag is named only for the panning and Western blot material (CD228-His); also called CD228 antigenic protein; C28
T1 sequence: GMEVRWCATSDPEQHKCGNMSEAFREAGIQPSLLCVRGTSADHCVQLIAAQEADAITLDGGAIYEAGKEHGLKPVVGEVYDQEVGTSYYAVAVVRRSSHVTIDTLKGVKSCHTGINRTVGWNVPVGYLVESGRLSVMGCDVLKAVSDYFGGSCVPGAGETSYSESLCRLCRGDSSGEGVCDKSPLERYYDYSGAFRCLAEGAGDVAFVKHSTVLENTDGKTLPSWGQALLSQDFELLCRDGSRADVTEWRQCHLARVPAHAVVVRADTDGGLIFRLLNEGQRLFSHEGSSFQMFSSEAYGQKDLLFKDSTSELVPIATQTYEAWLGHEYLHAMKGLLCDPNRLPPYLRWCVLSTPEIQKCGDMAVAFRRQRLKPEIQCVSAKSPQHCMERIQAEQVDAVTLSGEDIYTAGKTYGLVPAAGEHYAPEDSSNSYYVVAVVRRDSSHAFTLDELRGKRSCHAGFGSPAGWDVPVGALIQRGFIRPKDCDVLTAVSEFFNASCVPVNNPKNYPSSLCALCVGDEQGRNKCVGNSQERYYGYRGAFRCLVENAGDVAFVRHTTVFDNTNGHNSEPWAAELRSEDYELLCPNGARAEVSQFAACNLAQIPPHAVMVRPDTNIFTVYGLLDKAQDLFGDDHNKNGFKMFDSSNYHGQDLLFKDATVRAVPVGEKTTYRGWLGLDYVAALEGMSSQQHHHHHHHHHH

B1: R526 (antibody, V domains shown)
VH: QEQLEESGGRLVTPGTPLTLTCTVSGFSLSTYAINWIRQAPGKGLEWIGIIGGNGATYYTNWAKGRFTISKTSTTVDLKITSPTIEDTATYFCARGTNFWGPGTLVTVSS
VL: DPVLTQTASPVSAAVGGTITINCQASQSVYNNNQLSWFQQNPGQPPKRLIHSTSTLAPGVSSRFKGSGSGTQFTLTISDVQCDDAATYYCLGSYDCVSADCNAFGGGTEVVVKG
notes: Rabbit-derived clone, full-length antibody with rabbit constant regions
B2: R546 (antibody, V domains shown)
VH: QSLEESGGRLVKPDETLTLTCTVSGFSLSSYDMSWVRQAPGKGLQWIGAATAGGNTYHASWAKGRFTISKTSTTVDLKITSPTTEDTATYFCTRGLNIWGPGTLVTVSS
VL: DPMLTQTASPVSAAVGSTVTINCQASQSVYNNNNLNWYQQKPGQPPKLLIYAASTLASGVPSRFKGSGSGTQFTLTISDVQCDDAATYYCLGAYDCSSADCGAFGGGTELEILG
notes: Rabbit-derived clone from a phage library, made as a full-length antibody with rabbit constant regions in HEK293 cells; also called CD228-R546; self-made antibody R546

How the values were obtained:
[1] = molecular target: T1, Human CD228 protein; assay: ELISA, plate coated with CD228 protein at 0.2 µg/mL
[2] = molecular target: T1, Human CD228 protein; assay: BLI, antibody on ProA sensor, CD228 protein in solution
[3] = molecular target: T1, Human CD228 protein; assay: as above; remark: listed apart in the source

Row | Binder | EC50 [1] | Kd [2] | Response [2] | Kd [3]
1 | B1 | 5.71 ng/mL | < 0.001 nM | 0.0251 | 
2 | B2 | 1.52 ng/mL | 1.33 nM | 0.128 | 1.33 nM
